Assay results: publication PMC8989513

Columns and labels:
Assay in all cases: BLI
[1] = molecular target: MYC(1–88 P21A), C-terminally biotinylated
[2] = molecular target: MYC(1–88 Y22A), C-terminally biotinylated
[3] = molecular target: MYC(1–88 Y24A), C-terminally biotinylated
[4] = molecular target: MYC(1–88 F23A), C-terminally biotinylated
[5] = molecular target: biotinyl-MB0 peptide (MYC Box 0, aa 16–33)
[6] = molecular target: C-terminally biotinylated MYC(1–88)
[7] = molecular target: C-terminally biotinylated MYC(1–88)ΔMB0

B1: PNUTS(1–148), PNUTS amino-terminal domain (PAD) (domain or fragment)
chain: MGSGPIDPKELLKGLDSFLNRDGEVKSVDGISKIFSLMKEARKMVSRCTYLNILLQTRSPEILVKFIDVGGYKLLNNWLTYSKTTNNIPLLQQILLTLQHLPLTVDHLKQNNTAKLVKQLSKSSEDEELRKLASVLVSDWMAVIRSQS
In the case of B1, the fold change of KD against wild-type MYC(1–88) [1] is reported as > 5 fold, the fold change of KD against wild-type MYC(1–88) [2] is reported as > 5 fold and the fold change of KD against wild-type MYC(1–88) [3] is reported as > 5 fold. For the same binder, the fold change of KD against wild-type MYC(1–88) [4] was > 5 fold, the Kd [5] was 9.4 µM and the Kd [6] was 3.5 µM. The Kd [7] was > 100 µM.
